Consider three molecules from publication PMC3375223, “Caspase Inhibitors of the P35 Family Are More Active When Purified from Yeast than Bacteria” (PLoS ONE, 2012).

Data set [1] concerns the molecule itself. The data set is described as follows: cross-linking; purified FLAG-tagged MaviP35 incubated in 5 µM BMH for 30 min at room temperature, boiled in loading dye with 5% β-mercaptoethanol, SDS-PAGE and anti-FLAG immunoblot; oligomer sizes by migration against markers.
Data set [2] concerns the molecule itself. The data set is described as follows: SEC; Superdex S200 on an ÄKTA purifier, 0.6 ml/min, 20 mM Tris pH 7.4, 50 mM NaCl; sizes by elution against BioRad gel filtration standard. For orientation: SEC sorts molecules by how far they enter the pores of the column.
Data set [3] deals with the molecule itself. The data set is described as follows: AUC; sedimentation velocity of gel filtration fractions (yeast 111–215 kDa, bacterial 89–138 kDa), 20°C, PBS, 40,000 rpm, 230 nm; 0.28 and 0.56 µM bacterial fractions, 1.95, 2.23 and 1.39 µM yeast fractions; c(s) and c(M) fits in SEDFIT.
For data set [4], the target named is caspase 3 (human) (UniProt P42574). The data set is described as follows: inhibition of caspase activity on a fluorogenic peptide, inhibition constants by a competitive model; graded concentrations of P35 protein, 30 nM caspase 3, 100 µM Ac-DEVD-AFC; constants of the yeast-purified proteins taken from ref. 22.
Sequence of caspase 3 (human) (P42574 whole entry): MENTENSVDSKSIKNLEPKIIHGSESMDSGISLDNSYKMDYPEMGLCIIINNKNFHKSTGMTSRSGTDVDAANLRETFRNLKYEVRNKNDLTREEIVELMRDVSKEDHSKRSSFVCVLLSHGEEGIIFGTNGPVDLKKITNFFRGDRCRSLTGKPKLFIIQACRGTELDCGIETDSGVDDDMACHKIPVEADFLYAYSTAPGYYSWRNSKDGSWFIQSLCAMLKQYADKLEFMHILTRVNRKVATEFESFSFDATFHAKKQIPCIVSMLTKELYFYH

“And” between values parts separate entries of the source, which are not always exact repeats. Equal values may be shown once.

Broadly, the stoichiometry N is the number of molecules, sites or subunits per partner or assembly.

B1: MaviP35-FLAG purified from Escherichia coli (natural protein)
chain: CVIFPVEIDVSQTVIKDCQVNKQTRELVYINKIMNIELTKPVLMMFNISGPIKSVTRKNNNLRDEIKSEIDKQFDQLERDHSTQFDGGHCIKYFKDEHYSISCQSGNVLKSKFEKILKSHGYTDEKSIEAYKKYCLPKLVDEQNNYYVAVCVLKPGFEKGSNQVLSFEYNPIGNKVIVPFAHEINDTGLYEYDAAAYVDNVKFDGEQQFEKFVQSLTLPSAYDDEEVLYYNETSENKRMMYKALEFKTKSCWGKFEWDYWKIFCNGFIYDEKLKVLYVKLHNVTSRVNNNIILNID
modifications: N-acetylated amino terminus on 24% of the protein
notes: MaviP35, the P35 orthologue of Maruca vitrata MNPV; full length protein lacking the initiating methionine (by mass spectrometry); expressed from pET23a-MaviP35-FLAG; Same coding region as m2 (excised from pGALL-(HIS3)-MaviP35-FLAG); the host differs; also called bacterially purified MaviP35; bacterially-produced MaviP35; source: E. coli BL21-(DE3)-pLysS, purified (Anti-FLAG M2-agarose, FLAG …)
For the molecule B1, the “stoichiometry N” value is 10 in data set [1] and 3 in data set [2].

B2: MaviP35-FLAG purified from Saccharomyces cerevisiae (natural protein)
chain: B1 chain
modifications: N-acetylated amino terminus on 12% of the protein
notes: MaviP35, the P35 orthologue of Maruca vitrata MNPV; full length protein lacking the initiating methionine (by mass spectrometry); expressed from pGALL-(HIS3)-MaviP35-FLAG; also called yeast-purified MaviP35; yeast-isolated MaviP35; source: gel filtration for some experiments; not shown: FLAG, C-terminal, kept
Regarding B2, the “stoichiometry N” value in data set [2] is 2 and 5; in data set [3] it was 4 and 6 and 8.

B3: AcP35-FLAG purified from Saccharomyces cerevisiae (natural protein)
chain: CVIFPVEIDVSQTIIRDCQVDKQTRELVYINKIMNTQLTKPVLMMFNISGPIRSVTRKNNNLRDRIKSKVDEQFDQLERDYSDQMDGFHDSIKYFKDEHYSVSCQNGSVLKSKFAKILKSHDYTDKKSIEAYEKYCLPKLVDERNDYYVAVCVLKPGFENGSNQVLSFEYNPIGNKVIVPFAHEINDTGLYEYDVVAYVDSVQFDGEQFEEFVQSLILPSSFKNSEKVLYYNEASKNKSMIYKALEFTTESSWGKSEKYNWKIFCNGFIYDKKSKVLYVKLHNVTSALNKNVILNTIK
modifications: N-acetylated amino terminus on 13% of the protein
B3: the fold more efficient in caspase 3 inhibition (inhibition constants, Figure 1B) than bacterially-purified AcP35 in data set [4] came to 6 fold.
